# Test results from patent US20250002945, “NEW TALE PROTEIN SCAFFOLDS WITH IMPROVED ON-TARGET/OFF-TARGET ACTIVITY RATIOS” (CELLECTIS SA, published 2025).
# T1: IgH (2) left V2 TALEN (synthetic, UniProt Q56830 SEQ:15-719)
# T1 chain: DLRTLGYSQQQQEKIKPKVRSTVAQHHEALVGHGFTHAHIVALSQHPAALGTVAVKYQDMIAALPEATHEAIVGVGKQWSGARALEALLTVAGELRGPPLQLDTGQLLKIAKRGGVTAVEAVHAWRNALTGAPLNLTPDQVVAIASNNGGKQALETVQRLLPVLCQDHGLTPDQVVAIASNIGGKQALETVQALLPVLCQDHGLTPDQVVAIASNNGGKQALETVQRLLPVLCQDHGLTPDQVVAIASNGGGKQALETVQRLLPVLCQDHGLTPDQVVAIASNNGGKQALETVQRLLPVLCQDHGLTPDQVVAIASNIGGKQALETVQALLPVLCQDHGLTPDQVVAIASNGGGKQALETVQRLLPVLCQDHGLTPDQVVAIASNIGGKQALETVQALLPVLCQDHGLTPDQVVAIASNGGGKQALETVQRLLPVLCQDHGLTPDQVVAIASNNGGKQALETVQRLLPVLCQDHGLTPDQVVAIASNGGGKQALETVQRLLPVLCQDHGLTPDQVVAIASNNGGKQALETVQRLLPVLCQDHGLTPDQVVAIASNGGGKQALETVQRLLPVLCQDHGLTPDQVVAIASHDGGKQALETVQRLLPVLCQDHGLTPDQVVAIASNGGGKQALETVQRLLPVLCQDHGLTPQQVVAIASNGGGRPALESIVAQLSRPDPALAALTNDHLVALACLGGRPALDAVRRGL
# T2: GADPH (2) right V2 TALEN (synthetic, UniProt Q56830 SEQ:15-719)
# T2 chain: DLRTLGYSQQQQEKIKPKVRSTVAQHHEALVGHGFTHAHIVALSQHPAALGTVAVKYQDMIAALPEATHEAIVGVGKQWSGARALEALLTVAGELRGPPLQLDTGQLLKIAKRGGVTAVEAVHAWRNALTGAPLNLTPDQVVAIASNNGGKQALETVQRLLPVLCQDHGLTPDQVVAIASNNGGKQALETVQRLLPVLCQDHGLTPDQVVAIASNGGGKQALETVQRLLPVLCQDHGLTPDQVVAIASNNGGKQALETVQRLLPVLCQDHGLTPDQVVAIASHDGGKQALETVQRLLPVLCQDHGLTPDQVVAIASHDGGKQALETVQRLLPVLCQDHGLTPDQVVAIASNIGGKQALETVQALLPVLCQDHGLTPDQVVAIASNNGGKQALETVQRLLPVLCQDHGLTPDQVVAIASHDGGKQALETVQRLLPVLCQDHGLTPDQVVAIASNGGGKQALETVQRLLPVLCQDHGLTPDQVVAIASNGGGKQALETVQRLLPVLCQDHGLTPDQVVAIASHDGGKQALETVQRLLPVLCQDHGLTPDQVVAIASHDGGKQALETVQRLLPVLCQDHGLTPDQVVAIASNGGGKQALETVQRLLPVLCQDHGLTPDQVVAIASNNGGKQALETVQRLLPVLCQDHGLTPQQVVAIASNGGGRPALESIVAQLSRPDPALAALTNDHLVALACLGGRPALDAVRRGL
# T3: IgH (2) right V2 TALEN (synthetic, UniProt Q56830 SEQ:15-719)
# T3 chain: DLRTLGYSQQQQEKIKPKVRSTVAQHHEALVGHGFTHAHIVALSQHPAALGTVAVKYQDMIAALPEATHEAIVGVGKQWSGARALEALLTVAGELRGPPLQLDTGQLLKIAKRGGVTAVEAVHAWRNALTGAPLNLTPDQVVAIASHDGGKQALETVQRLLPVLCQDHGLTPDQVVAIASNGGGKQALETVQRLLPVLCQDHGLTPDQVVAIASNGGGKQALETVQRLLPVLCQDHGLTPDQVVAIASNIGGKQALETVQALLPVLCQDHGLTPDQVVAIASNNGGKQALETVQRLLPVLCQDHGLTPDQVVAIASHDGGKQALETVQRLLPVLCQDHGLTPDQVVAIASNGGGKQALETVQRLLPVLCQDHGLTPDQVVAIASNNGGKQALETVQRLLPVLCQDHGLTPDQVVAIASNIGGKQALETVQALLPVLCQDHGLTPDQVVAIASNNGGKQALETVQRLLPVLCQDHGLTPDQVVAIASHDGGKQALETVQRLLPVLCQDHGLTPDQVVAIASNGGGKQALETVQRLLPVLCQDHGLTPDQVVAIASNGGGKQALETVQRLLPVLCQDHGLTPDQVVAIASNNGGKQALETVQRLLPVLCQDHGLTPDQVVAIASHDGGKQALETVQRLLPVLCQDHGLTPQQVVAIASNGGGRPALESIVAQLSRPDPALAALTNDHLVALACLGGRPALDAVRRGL
# T4: GADPH (1) right V2 TALEN (synthetic, UniProt Q56830 SEQ:15-719)
# T4 chain: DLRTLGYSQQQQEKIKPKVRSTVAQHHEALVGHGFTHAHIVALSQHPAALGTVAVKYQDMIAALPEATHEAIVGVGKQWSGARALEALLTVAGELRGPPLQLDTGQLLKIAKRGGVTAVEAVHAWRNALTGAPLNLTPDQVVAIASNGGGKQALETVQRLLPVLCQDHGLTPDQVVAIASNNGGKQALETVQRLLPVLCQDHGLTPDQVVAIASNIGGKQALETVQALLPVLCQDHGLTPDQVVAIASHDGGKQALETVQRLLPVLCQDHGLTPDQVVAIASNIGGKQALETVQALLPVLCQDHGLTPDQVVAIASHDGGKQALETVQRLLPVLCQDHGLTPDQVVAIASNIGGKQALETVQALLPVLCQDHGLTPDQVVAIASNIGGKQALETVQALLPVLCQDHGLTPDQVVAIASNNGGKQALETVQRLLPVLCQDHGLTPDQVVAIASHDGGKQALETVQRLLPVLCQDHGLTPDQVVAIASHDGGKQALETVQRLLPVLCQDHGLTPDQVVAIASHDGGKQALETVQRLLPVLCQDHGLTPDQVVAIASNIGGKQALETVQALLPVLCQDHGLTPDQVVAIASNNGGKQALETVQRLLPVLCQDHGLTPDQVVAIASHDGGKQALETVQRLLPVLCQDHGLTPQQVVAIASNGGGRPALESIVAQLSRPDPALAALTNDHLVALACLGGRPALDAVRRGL
# T5: GADPH (2) left V2 TALEN (synthetic, UniProt Q56830 SEQ:15-719)
# T5 chain: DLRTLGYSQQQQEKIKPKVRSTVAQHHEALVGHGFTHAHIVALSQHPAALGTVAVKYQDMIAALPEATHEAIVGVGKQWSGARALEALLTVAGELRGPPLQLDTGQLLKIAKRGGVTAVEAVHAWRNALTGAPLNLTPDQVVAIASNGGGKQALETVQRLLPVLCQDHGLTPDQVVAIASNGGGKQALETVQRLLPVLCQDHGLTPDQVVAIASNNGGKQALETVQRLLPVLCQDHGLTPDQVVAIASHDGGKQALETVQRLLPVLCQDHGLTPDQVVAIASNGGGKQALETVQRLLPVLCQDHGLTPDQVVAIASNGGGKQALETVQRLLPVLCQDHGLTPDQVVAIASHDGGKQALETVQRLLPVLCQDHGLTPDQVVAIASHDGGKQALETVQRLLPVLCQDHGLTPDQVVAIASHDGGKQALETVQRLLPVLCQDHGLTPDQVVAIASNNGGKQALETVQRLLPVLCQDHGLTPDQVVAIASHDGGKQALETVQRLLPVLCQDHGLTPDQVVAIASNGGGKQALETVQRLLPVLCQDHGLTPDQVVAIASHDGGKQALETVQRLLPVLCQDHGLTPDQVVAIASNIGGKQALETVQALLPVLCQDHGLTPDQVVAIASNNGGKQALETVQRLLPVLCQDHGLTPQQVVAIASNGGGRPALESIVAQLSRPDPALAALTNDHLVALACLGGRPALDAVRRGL
# T6: GADPH (1) left V2 TALEN (synthetic, UniProt Q56830 SEQ:15-719)
# T6 chain: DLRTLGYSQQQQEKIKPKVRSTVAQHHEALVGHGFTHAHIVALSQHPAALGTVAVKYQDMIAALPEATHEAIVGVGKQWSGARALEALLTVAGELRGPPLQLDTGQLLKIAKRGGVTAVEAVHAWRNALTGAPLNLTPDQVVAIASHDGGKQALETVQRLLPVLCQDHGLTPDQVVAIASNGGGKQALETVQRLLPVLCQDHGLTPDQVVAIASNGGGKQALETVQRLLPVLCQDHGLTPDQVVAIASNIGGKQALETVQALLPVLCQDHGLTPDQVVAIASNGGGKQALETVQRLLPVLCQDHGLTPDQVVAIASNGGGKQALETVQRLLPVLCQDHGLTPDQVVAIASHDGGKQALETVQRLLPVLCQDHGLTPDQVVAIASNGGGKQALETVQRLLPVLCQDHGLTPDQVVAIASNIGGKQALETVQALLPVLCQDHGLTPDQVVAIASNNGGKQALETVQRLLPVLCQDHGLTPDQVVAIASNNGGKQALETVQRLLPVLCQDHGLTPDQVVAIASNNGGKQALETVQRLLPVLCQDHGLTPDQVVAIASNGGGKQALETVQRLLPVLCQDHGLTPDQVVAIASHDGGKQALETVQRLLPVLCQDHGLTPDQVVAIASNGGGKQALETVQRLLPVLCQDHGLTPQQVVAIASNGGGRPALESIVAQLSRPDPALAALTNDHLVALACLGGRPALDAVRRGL
# B1: IgH (2) left half-site (dsDNA)
# DNA 1: TGAGTGATATGTGTCTG
# DNA 2: CAGACACATATCACTCA
# B2: GADPH (2) right half-site (dsDNA)
# DNA 1: ACAGGAAGCTGGCACCA
# DNA 2: TGGTGCCAGCTTCCTGT
# B3: IgH (2) right half-site (dsDNA)
# DNA 1: AGCAAGCTCAGCTAAGA
# DNA 2: TCTTAGCTGAGCTTGCT
# B4: GADPH (1) right half-site (dsDNA)
# DNA 1: AGCTGGGCTTGTGTCAA
# DNA 2: TTGACACAAGCCCAGCT
# B5: GADPH (2) left half-site (dsDNA)
# DNA 1: TTTGCTTCCCGCTCAGA
# DNA 2: TCTGAGCGGGAAGCAAA
# B6: CS1 left half-site (dsDNA)
# DNA 1: TTCCAGAGAGCAATATG
# DNA 2: CATATTGCTCTCTGGAA
# B7: GADPH (1) left half-site (dsDNA)
# DNA 1: TCTTATTCTAGGGTCTG
# DNA 2: CAGACCCTAGAATAAGA
# What was measured:
# Settings in all cases: tags: SV40 NLS; FokI fusion
# IgH (2) left V2 TALEN = target: T1, IgH (2) left V2 TALEN; assay: cell_activity; T cells, mostly above 70%
# GADPH (2) right V2 TALEN = target: T2, GADPH (2) right V2 TALEN; assay: cell_activity; T cells, mostly above 70%
# IgH (2) right V2 TALEN = target: T3, IgH (2) right V2 TALEN; assay: cell_activity; T cells, mostly above 70%
# GADPH (1) right V2 TALEN = target: T4, GADPH (1) right V2 TALEN; assay: cell_activity; T cells, mostly above 70%
# GADPH (2) left V2 TALEN = target: T5, GADPH (2) left V2 TALEN; assay: cell_activity; T cells, mostly above 70%
# [1] = target: CS1 TALEN left V0 FokI Y88A (synthetic, UniProt Q56830, Y88A (FokI domain, SEQ ID NO:109 numbering)); assay: cell_activity; paired with V0 monomer
# [2] = target: CS1 TALEN left V0 FokI G91A (synthetic, UniProt Q56830, G91A (FokI domain, SEQ ID NO:109 numbering)); assay: cell_activity; paired with V0 monomer
# [3] = target: CS1 TALEN left V0 FokI D84A (synthetic, UniProt Q56830, D84A (FokI domain, SEQ ID NO:109 numbering)); assay: cell_activity; paired with V0 monomer
# GADPH (1) left V2 TALEN = target: T6, GADPH (1) left V2 TALEN; assay: cell_activity; T cells, mostly above 70%
binder,measurement,setting,value
B1,activity,IgH (2) left V2 TALEN,> 50 % indels
B2,activity,GADPH (2) right V2 TALEN,> 50 % indels
B3,activity,IgH (2) right V2 TALEN,> 50 % indels
B4,activity,GADPH (1) right V2 TALEN,> 50 % indels
B5,activity,GADPH (2) left V2 TALEN,> 50 % indels
B6,binding signal,[1],> 100 % of WT FokI
same,binding signal,[2],> 100 % of WT FokI
same,binding signal,[3],> 100 % of WT FokI
B7,activity,GADPH (1) left V2 TALEN,> 50 % indels
